Assay results published in the nanobody polyreactivity screen of Harvey et al. (2022).

Assay: yeast display, Sf9 membrane polyspecificity reagent, FACS + sequencing; frameworks hold sequencing errors
How it was run: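 Polyreactivity labels are assigned by the sorting gate from which each nanobody was recovered. The gates were low and high (top ~1%), set on anti-HA fluorescence for expression and streptavidin fluorescence for reagent binding. Before sorting, galactose-induced (36–48 hours) yeast display cells were stained for 1 hour at 4 °C with 10% biotinylated, detergent-solubilized Sf9 membrane reagent.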

Sequence	polyreactivity (PSR sort gate)
QVQLVESWVGLVQAGGSLSLSCDASGFTILGYAMGWYRQAPGKERELVASITYGGDSTYYADSVKGRFTISRDNAKNTVYLQINCLKPEDTAVYYCNARPSYWWGGRLYGYWGQGSQVTVSS	high polyreactivity
QVQLVETAGGLVHAGGSLRLSCADSGRIFERNAMGWNRQSPGKERELVARITSGGGTYYADSVKGRFTISRDNAKNTVYLQMNSLKPEDTAVYYCAVQYLYRKYRRYDYWGQGTQVTVSS	high polyreactivity
QVQLVETEVGLDQAGGSLPLSCAASGYTFWAYAMGWYRQSPGKERELVAGISSRGSRTYYADSVKGRFTISRDNAKNTVYLQMNSLKPEDTAVYYCNALRTPPGYYPPFDYWGQGTQVTVSS	high polyreactivity
QVQLVETGGGIFQAGGSIRLSCAASGRTFSTYAKGWYRQAPGKERELVAGISRGGGSTYYADSVKGRFTISRDNAKNTVYLLMNSLKPEDTAVYYCAAKRPQYYVQYGYWGQGSQVTVSS	high polyreactivity
QVQLVETGGGIVQAGGSLRLRCAAAGRHCYHNVMGWYRQAPGKERELVAGIRSRGGSTSYADSVKGRFTISRDNSKNTVYLQMNSLKPEDTAVYYCATDTTLWYVLYDYWGQGTQVTVSS	low polyreactivity
QVQLVETGGGLFQAGVSLRLSCAASGSTFDGYVMGWYRQAPGKERELVAAISGSGGSTYYADSVKGRFTISRDHAQNTDYLQMISLKPEDTAVYYCAADSWWYDDYSEGDYWGQGTQVTVSS	low polyreactivity
QVQLVETGGGLVHAGGSLRLSCAASGFIFTEYAMGWYRQAPGKEMELVAAISRSDDATHYADSVKGRFTISRDNAKNTVSLQMNSLKTEDTAVYNCTVAPEGYSLVDTSPYYYWGQGTQVTVSS	low polyreactivity
QVQLVETGGGLVHAGGSLRLSCAASGSIFGLYAMGWYRQAPGKERELVAAITVSGGSTYYADSVKGRFTISRDNAKNTVYLQLNSLKPEDTAVYYCAARAGWPLYQYYYWGQGTQVTVSS	high polyreactivity
QVQLVETGGGLVKAGGSLRLSCAASGRIFLVNDMGWYRQAPGKERELVARINGGITNYADSVKGRFTISRDNAKNTVYFQMISLKPEDTAVYYCAARSRKYYSYYYWGQGTQLTVSS	high polyreactivity
QVQLVETGGGLVLAGGSLRLSCAASGSTFRLYAMGWYRQAPGTARELVAAITSGGSTYYADAVKGRFTISRDNAKNTVYLQMNSLKPEDTAVYYCARLAGDSTYWWWLYLITQRDDYWGQGTQVTVSS	low polyreactivity
QVQLVETGGGLVQAGGILRLSCAASGLIFTGNVMGWYRQAPGKESELVAAISRSGGRTYYADSVKGRFTISRDNAKNTVYLQMNSLKPEDTAVYYCNKVSPERVYYGSYFRYYYWGQGTQVTVSS	high polyreactivity
QVQLVETGGGLVQAGGILRLSCAASGRIFVVYAMGWYRQAPGKERELVASNSRGGRTYYADSVKGRFTISRDNEKNTVYLQMNILKTEDTAVYYCAVVVFLKNRDLFDYWGQGTQVTVSS	low polyreactivity
QVQLVETGGGLVQAGGSLHLSCAASGIIIYANDMGWYRQAPGKERELVAGISRNGGRTYYADSVKGRFTISRDNAKNTVYLQMNSLKPEDTAVYYCAARGSYTSIFDYWGQGTQVTVSS	high polyreactivity
QVQLVETGGGLVQAGGSLLLSCAASGFTLLSYAMGWYRQAPGKERELVAAISESGVSTSYADSVKGRFTISRDNAKNTVYLQMKSLKPEDTAFYYCNKSDFWVVIYDSWGQGTQVTVSS	low polyreactivity
QVQLVETGGGLVQAGGSLRISCAASGFTISFYAMAWYRHAPGKERELVAAISSGGRTSYADSVKGRFTISRDNAKNTVYLQMNSLTPEATAVYYCAATNRWYYRAAAAVYAFGYWGHGTQVTVSS	high polyreactivity
QVQLVETGGGLVQAGGSLRISCAASGIIYVDNVMGSYRQAPGKERELVAAIDYSGGSTYYADSVKGRFTISRDNAKNNVYFQMNSLKPEDTAVYYCHARTYYGYGMDYWGQGTQVTVSS	low polyreactivity
QVQLVETGGGLVQAGGSLRLSCAASGATFNANGMGWYRQAPGKERELVAAISQRAGRTYYADSVKGRFTISRDNAKNTVYLQMNSLKPEDTAVYYCAARYLGGYYFRYYYWGQGTQVTVSS	high polyreactivity
QVQLVETGGGLVQAGGSLRLSCAASGFIFRGNAMGWYRQAPGKERELVAAISKRGGSTNYADSVKGRFTISRDNAKNTVYLQMNSLKPEDTAVYYCNAEGIYRQPRGYVYRYDYWGQGTQVTVSS	high polyreactivity
QVQLVETGGGLVQAGGSLRLSCAASGFIFYPYDMGWYRQAPGKERELVAAITQSGGSTYYADSVKGRFTISRDNAKNTVYLQMNSLKQVDTAVYYCAADYAVWHRGQVVEIYDYWGQGTQVTVSS	low polyreactivity
QVQLVETGGGLVQAGGSLRLSCAASGFILDYNAKGWYRQAPGKERELVAAITSGGSTNYSDSVKGRFTISRDNAKNTVYLQMNSLKPEDTAVYYCNVRSVSPVHDDGSWGQGTQVTVSS	low polyreactivity
QVQLVETGGGLVQAGGSLRLSCAASGFTFYYYAMGWYRQAPGKERELVAAINRSGGSTYYADSLKGRFTISRDNAKNTVYLQMNSLKPEDTAVYYCAAPYVGGSSHGYWGQGTQVTVSS	high polyreactivity
QVQLVETGGGLVQAGGSLRLSCAASGFTIRRYTMGWYRQAPGKERELVAAITRGVRTYYADSVKGRFTISRDNAKNTVYLQMNSLKPEDTAVYYCNTAQQSERDYWGQGTQVTVSS	high polyreactivity
QVQLVETGGGLVQAGGSLRLSCAASGGIFLVNDMGWYRPAPGKERELVAAISGSGGSTYYADSVKGRVTISRDNAKNTVYLQMNSLKPEDTAVYYCAAVGTHKAGGAYNYWGQGTQVTVSS	low polyreactivity
QVQLVETGGGLVQAGGSLRLSCAASGGIIRVYVMGWYIQAPGKERELVAAISRRGGSTYYADSVKGRFTISRDNAKNTVYLKMNSLKPEDTAVYYCAAYSTGTEFDYWGQGTQVSVSS	high polyreactivity
QVQLVETGGGLVQAGGSLRLSCAASGIFVSYAMGWYRQAPGKERELVAAIRYSGDSTYYADSVKGRFTISRDNAKNTVYLQMNSLKPEDTAVYYCAATKGWSRYEYWGQGTQVTVSS	low polyreactivity
QVQLVETGGGLVQAGGSLRLSCAASGIIFSKYAMGRYRQAPGKERELVAAITRSGGSTYYADSVKGRFTISRDNAKNTVYLQMNSLKPEDTAVYYCAKRSGTPTNRQRYGYWGQGTQVTVSS	high polyreactivity
QVQLVETGGGLVQAGGSLRLSCAASGITIRPYTMGWYRQAPGKERELVARISRRGGSTYYADSVKGRFTISRDNAKNTVYLQMNSLKPEDTAVYYCATRSRAHISPYDYWGQGTQVTVSS	high polyreactivity
QVQLVETGGGLVQAGGSLRLSCAASGLILGGYAMGWYRQAHGKERELVAAITRGGGSTFYADSVKGRFTISRDNAKNTVYLQMNSLKPEDTAVYYCAKRYPYRPPGPRYRGLSGYVYWGQGTQVTVSS	high polyreactivity
QVQLVETGGGLVQAGGSLRLSCAASGLTFDENAMGWYRQAPGINYSGASTYYADSVKGRFTISRDNAKNTVYLQMNSLKPEDTAVYYCAAEVVAQMNYWGQGTQVTVSS	low polyreactivity
QVQLVETGGGLVQAGGSLRLSCAASGNIFRAYPMGWYRQAPGKERELVARINSGAITNYADSVKGRFTISRDNAKNTVYLQMNSLKPDDTAVYYCARDTQYPYYFLMDYWGQGTQVTVSS	low polyreactivity
